60 sequences from the supplement of paper PMC7877785 can be followed below.

± gives the uncertainty stated by the source.

A short description of this series: self-splicing fitness, log relative to wild type (ln ratio); higher = more splicing; Tetrahymena group I intron in knt gene, E. coli kanamycin selection, DiMSum; sequences stand for … in CUCUCU…GGAGGGAAAAGUUAUCAGGCAUGCACCUGGUAGCUAGUCUUUAAACCAAUAGAUUGCAUCGGUUUAAAAGGCAAGACCGUCAAAUUGCGGGAAAGGGGUCAACAGCCGUUCAGUACCAAGUCUCAGGGGAAACUUUGAGAUGGCCUUGCAAAGGGUAUGGUAAUAAGCUGACGGACAUGGUCCUAACCACGCAGCCAAGUCCUAAGUCAACAGAUCUUCUGUUGAUAUGGAUGCAGUUCACAGACUAAAUGUCGGUCGGGGAAGAUGUAUUCUUCUCAUAAGAUAUAGUCGGACCUCUCCUUAAUGGGAGCUAGCGGAUGAAGUGAUGCAACACUGGAGCCGCUGGGAACUAAUUUGUAUGCGAAAGUAUAUUGAUUAGUUUUGGAGUACUCGUGGUCG
The method in brief: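 Six replicate transformations of E. coli BL21(DE3) with a pET-22b(+) library were grown overnight at 37°C or 30°C. The library randomised all eight P1ex-region intron nucleotides, the intron lying in the knt kanamycin-resistance gene, and plates were LB agar with or without 25 μg/mL kanamycin plus 100 μg/mL carbenicillin, 50 μM IPTG and 0.2% rhamnose. Pooled colonies were amplicon-sequenced on an Illumina HiSeq 2500, and fitness is the DiMSum error-weighted combination of wild-type-normalised replicate fold changes, kanamycin versus none.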

For the sequence ACCUAGCAAUAUUACGAUUU, the “self-splicing fitness (ln)” value is -0.879 ± 0.064 (30 °C) and -0.0104 ± 0.079 (37 °C).

Consider ACCUAGCAAUAUUACGCAGA, for which the “self-splicing fitness (ln)” value is -2.23 ± 0.09 (30 °C) and -1.11 ± 0.082 (37 °C).

For ACCUAGCAAUAUUACGCGGA, the “self-splicing fitness (ln)” value is, setting by setting: (30 °C) -1.04 ± 0.085; (37 °C) -0.0825 ± 0.086.

On to ACCUAGCAAUAUUACGCUUA, for which the “self-splicing fitness (ln)” value (30 °C) is -1.73 ± 0.11 and the “self-splicing fitness (ln)” value (37 °C) is -0.883 ± 0.1.

As to ACCUAGCAAUAUUACGCUUG, the “self-splicing fitness (ln)” value (30 °C) is -3.5 ± 0.16 and the “self-splicing fitness (ln)” value (37 °C) was -2.04 ± 0.16.

As to ACCUAGCAAUAUUACGGACU, the “self-splicing fitness (ln)” value runs as follows: (30 °C) -0.424 ± 0.059; (37 °C) 0.508 ± 0.069.

As to ACCUAGCAAUAUUACGGAUA, the “self-splicing fitness (ln)” value reads like this: (30 °C) -1.65 ± 0.11; (37 °C) -1.59 ± 0.099.

As for ACCUAGCAAUAUUACGGAUU, the “self-splicing fitness (ln)” value was -1.23 ± 0.072 (30 °C) and 0.134 ± 0.088 (37 °C).

As for ACCUAGCAAUAUUACGGGUG, the “self-splicing fitness (ln)” value (30 °C) was -1.47 ± 0.071 and the “self-splicing fitness (ln)” value (37 °C) was -1.1 ± 0.087.

With ACCUAGCAAUAUUACGGUGA, the “self-splicing fitness (ln)” value was -1.86 ± 0.079 (30 °C) and -0.814 ± 0.074 (37 °C).

Consider ACCUAGCAAUAUUACGUACA, for which the “self-splicing fitness (ln)” value reads like this: (30 °C) -1.31 ± 0.14; (37 °C) -0.964 ± 0.17.

Turning to ACCUAGCAAUAUUACGUAUC, the “self-splicing fitness (ln)” value (30 °C) is -2.83 ± 0.083 and the “self-splicing fitness (ln)” value (37 °C) was -1.85 ± 0.1.

In the case of ACCUAGCAAUAUUACGUCCA, the “self-splicing fitness (ln)” value was -1.53 ± 0.098 (30 °C) and -0.615 ± 0.094 (37 °C).

Consider ACCUAGCAAUAUUACGUCCC, for which the “self-splicing fitness (ln)” value (30 °C) is -1.37 ± 0.26.

Consider ACCUAGCAAUAUUACGUCGA, for which the “self-splicing fitness (ln)” value is -2.29 ± 0.093 (30 °C) and -0.834 ± 0.091 (37 °C).

For the sequence ACCUAGCAAUAUUACGUGAC, the “self-splicing fitness (ln)” value by setting is: (30 °C) -3.2 ± 0.12; (37 °C) -0.892 ± 0.11.

Consider ACCUAGCAAUAUUACGUGGC, for which the “self-splicing fitness (ln)” value is, setting by setting: (30 °C) -3.35 ± 0.21; (37 °C) -2.02 ± 0.21.

Turning to ACCUAGCAAUAUUACGUUAG, the “self-splicing fitness (ln)” value is, setting by setting: (30 °C) -3.59 ± 0.14; (37 °C) -2.69 ± 0.19.

Turning to ACCUAGCAAUAUUACGUUAU, the “self-splicing fitness (ln)” value is -2.43 ± 0.11 (30 °C) and -1.53 ± 0.11 (37 °C).

Regarding ACGAAGCAAUAUUACGAACA, the “self-splicing fitness (ln)” value (30 °C) is -1.62 ± 0.13 and the “self-splicing fitness (ln)” value (37 °C) is -0.229 ± 0.11.

Regarding ACGAAGCAAUAUUACGAAGA, the “self-splicing fitness (ln)” value is, setting by setting: (30 °C) -3.07 ± 0.25; (37 °C) -3.2 ± 0.37.

Consider ACGAAGCAAUAUUACGAAUC, for which the “self-splicing fitness (ln)” value (30 °C) was -3.29 ± 0.2 and the “self-splicing fitness (ln)” value (37 °C) is -2.9 ± 0.25.

Regarding ACGAAGCAAUAUUACGACUA, the “self-splicing fitness (ln)” value is -0.269 ± 0.083 (30 °C) and -0.184 ± 0.081 (37 °C).

As to ACGAAGCAAUAUUACGAGCA, the “self-splicing fitness (ln)” value is -2.84 ± 0.14 (30 °C) and -1.32 ± 0.12 (37 °C).

As for ACGAAGCAAUAUUACGAUGG, the “self-splicing fitness (ln)” value is -2.34 ± 0.13 (30 °C) and -1.17 ± 0.12 (37 °C).

Regarding ACGAAGCAAUAUUACGCAUU, the “self-splicing fitness (ln)” value is, setting by setting: (30 °C) -3.42 ± 0.12; (37 °C) -1.95 ± 0.096.

Turning to ACGAAGCAAUAUUACGCCCG, the “self-splicing fitness (ln)” value (30 °C) is -0.0902 ± 0.13 and the “self-splicing fitness (ln)” value (37 °C) was -0.0289 ± 0.14.

ACGAAGCAAUAUUACGCGAG: the “self-splicing fitness (ln)” value reads like this: (30 °C) -1.48 ± 0.12; (37 °C) -0.723 ± 0.11.

On to ACGAAGCAAUAUUACGCGGC, for which the “self-splicing fitness (ln)” value (30 °C) is -2.63 ± 0.35 and the “self-splicing fitness (ln)” value (37 °C) was -2.22 ± 0.24.

Consider ACGAAGCAAUAUUACGCGUC, for which the “self-splicing fitness (ln)” value was -3.76 ± 0.21 (30 °C) and -1.91 ± 0.19 (37 °C).

With ACGAAGCAAUAUUACGCUCU, the “self-splicing fitness (ln)” value runs as follows: (30 °C) -1.35 ± 0.094; (37 °C) -0.15 ± 0.1.

Consider ACGAAGCAAUAUUACGGACA, for which the “self-splicing fitness (ln)” value is, setting by setting: (30 °C) -0.643 ± 0.14; (37 °C) -0.915 ± 0.15.

As for ACGAAGCAAUAUUACGGACU, the “self-splicing fitness (ln)” value (30 °C) turned out to be 0.0455 ± 0.045 and the “self-splicing fitness (ln)” value (37 °C) worked out at 0.53 ± 0.065.

ACGAAGCAAUAUUACGGAUG: the “self-splicing fitness (ln)” value runs as follows: (30 °C) -2.82 ± 0.13; (37 °C) -1.44 ± 0.11.

As for ACGAAGCAAUAUUACGGCAA, the “self-splicing fitness (ln)” value (30 °C) is -1.04 ± 0.13 and the “self-splicing fitness (ln)” value (37 °C) is -0.678 ± 0.13.

In the case of ACGAAGCAAUAUUACGGGAC, the “self-splicing fitness (ln)” value (30 °C) was -4.36 ± 0.24 and the “self-splicing fitness (ln)” value (37 °C) is -2.68 ± 0.18.

Regarding ACGAAGCAAUAUUACGGUGC, the “self-splicing fitness (ln)” value is -4.82 ± 0.27 (30 °C) and -3.17 ± 0.2 (37 °C).

Regarding ACGAAGCAAUAUUACGGUUG, the “self-splicing fitness (ln)” value reads like this: (30 °C) -2.29 ± 0.07; (37 °C) -1.31 ± 0.081.

Regarding ACGAAGCAAUAUUACGUACA, the “self-splicing fitness (ln)” value is -2.13 ± 0.13 (30 °C) and -1.06 ± 0.12 (37 °C).

In the case of ACGAAGCAAUAUUACGUCUC, the “self-splicing fitness (ln)” value by setting is: (30 °C) -3.62 ± 0.12; (37 °C) -1.55 ± 0.087.

For the sequence ACGAAGCAAUAUUACGUGAG, the “self-splicing fitness (ln)” value (30 °C) is -0.888 ± 0.056 and the “self-splicing fitness (ln)” value (37 °C) is -1.14 ± 0.087.

As to ACGAAGCAAUAUUACGUGGC, the “self-splicing fitness (ln)” value was -2.97 ± 0.11 (30 °C) and -2.04 ± 0.14 (37 °C).

In the case of ACGAAGCAAUAUUACGUUUU, the “self-splicing fitness (ln)” value (30 °C) is -4.13 ± 0.16 and the “self-splicing fitness (ln)” value (37 °C) is -1.8 ± 0.11.

For ACGCAGCAAUAUUACGAAGA, the “self-splicing fitness (ln)” value (37 °C) is -1.43 ± 0.26.

For ACGCAGCAAUAUUACGCCUA, the “self-splicing fitness (ln)” value is, setting by setting: (30 °C) -0.946 ± 0.088; (37 °C) 0.0129 ± 0.093.

For ACGCAGCAAUAUUACGCUCG, the “self-splicing fitness (ln)” value was -2.56 ± 0.12 (30 °C) and -1.67 ± 0.16 (37 °C).

Consider ACGCAGCAAUAUUACGGACA, for which the “self-splicing fitness (ln)” value runs as follows: (30 °C) -1.29 ± 0.13; (37 °C) -1.13 ± 0.14.

For the sequence ACGCAGCAAUAUUACGGAGA, the “self-splicing fitness (ln)” value by setting is: (30 °C) -2.66 ± 0.3; (37 °C) -2.41 ± 0.2.

With ACGCAGCAAUAUUACGGCCU, the “self-splicing fitness (ln)” value amounted to 0.271 ± 0.063 (30 °C) and 0.881 ± 0.091 (37 °C).

ACGCAGCAAUAUUACGGCUG: the “self-splicing fitness (ln)” value reads like this: (30 °C) -3.03 ± 0.16; (37 °C) -3.01 ± 0.22.

Consider ACGCAGCAAUAUUACGGUAC, for which the “self-splicing fitness (ln)” value (30 °C) was -1.03 ± 0.18 and the “self-splicing fitness (ln)” value (37 °C) is -2.48 ± 0.45.

For the sequence ACGCAGCAAUAUUACGGUUC, the “self-splicing fitness (ln)” value (30 °C) was -3.63 ± 0.22 and the “self-splicing fitness (ln)” value (37 °C) was -1.89 ± 0.15.

With ACGCAGCAAUAUUACGUACC, the “self-splicing fitness (ln)” value by setting is: (30 °C) -1.46 ± 0.24; (37 °C) -0.295 ± 0.26.

In the case of ACGCAGCAAUAUUACGUACG, the “self-splicing fitness (ln)” value was -2.93 ± 0.15 (30 °C) and -0.983 ± 0.13 (37 °C).

With ACGCAGCAAUAUUACGUCCU, the “self-splicing fitness (ln)” value by setting is: (30 °C) -0.15 ± 0.058; (37 °C) 0.354 ± 0.07.

For ACGCAGCAAUAUUACGUCGG, the “self-splicing fitness (ln)” value reads like this: (30 °C) -1.23 ± 0.067; (37 °C) -1.14 ± 0.1.

For the sequence ACGCAGCAAUAUUACGUCUU, the “self-splicing fitness (ln)” value is -1.36 ± 0.065 (30 °C) and -1.27 ± 0.083 (37 °C).

Consider ACGCAGCAAUAUUACGUGAC, for which the “self-splicing fitness (ln)” value is, setting by setting: (30 °C) -3.45 ± 0.25; (37 °C) -2.3 ± 0.21.

ACGCAGCAAUAUUACGUGCG: the “self-splicing fitness (ln)” value is, setting by setting: (30 °C) -3.58 ± 0.13; (37 °C) -2.85 ± 0.15.

Turning to ACGCAGCAAUAUUACGUUUA, the “self-splicing fitness (ln)” value (30 °C) was -2.58 ± 0.12 and the “self-splicing fitness (ln)” value (37 °C) is -1.42 ± 0.095.
